This is an account of results in paper PMC3035870 (Molecular microbiology, 2009).

To fix the notation:
B1: Δτ18, B. subtilis τ lacking the last 18 C-terminal residues (domain or fragment, B. subtilis (strain 168), UniProt P09122 1-545, looked up)
chain: MSYQALYRVFRPQRFEDVVGQEHITKTLQNALLQKKFSHAYLFSGPRGTGKTSAAKIFAKAVNCEHAPVDEPCNECAACKGITNGSISDVIEIDAASNNGVDEIRDIRDKVKFAPSAVTYKVYIIDEVHMLSIGAFNALLKTLEEPPEHCIFILATTEPHKIPLTIISRCQRFDFKRITSQAIVGRMNKIVDAEQLQVEEGSLEIIASAADGGMRDALSLLDQAISFSGDILKVEDALLITGAVSQLYIGKLAKSLHDKNVSDALETLNELLQQGKDPAKLIEDMIFYFRDMLLYKTAPGLEGVLEKVKVDETFRELSEQIPAQALYEMIDILNKSHQEMKWTNHPRIFFEVAVVKICQTSHQSAADLPEVDMLMKKIQQLEQEVERLKTTGIKAAAESPKKEAPRVPKGGKSNYKAPVGRIHEILKEATRPDLDLLRNSWGKLLAHLKQQNKVSHAALLNDSEPVAAGSAAFVLKFKYEIHCKMVAEDNNGVRTNLEQILESMLGKRMDLIGVPEAQWGKIREEFLEDHQQENEGSNEPAEEDP
B2: Bacillus subtilis τ subunit of the clamp-loader (DnaX) (natural protein, B. subtilis (strain 168), UniProt P09122 1-563, looked up)
chain: MSYQALYRVFRPQRFEDVVGQEHITKTLQNALLQKKFSHAYLFSGPRGTGKTSAAKIFAKAVNCEHAPVDEPCNECAACKGITNGSISDVIEIDAASNNGVDEIRDIRDKVKFAPSAVTYKVYIIDEVHMLSIGAFNALLKTLEEPPEHCIFILATTEPHKIPLTIISRCQRFDFKRITSQAIVGRMNKIVDAEQLQVEEGSLEIIASAADGGMRDALSLLDQAISFSGDILKVEDALLITGAVSQLYIGKLAKSLHDKNVSDALETLNELLQQGKDPAKLIEDMIFYFRDMLLYKTAPGLEGVLEKVKVDETFRELSEQIPAQALYEMIDILNKSHQEMKWTNHPRIFFEVAVVKICQTSHQSAADLPEVDMLMKKIQQLEQEVERLKTTGIKAAAESPKKEAPRVPKGGKSNYKAPVGRIHEILKEATRPDLDLLRNSWGKLLAHLKQQNKVSHAALLNDSEPVAAGSAAFVLKFKYEIHCKMVAEDNNGVRTNLEQILESMLGKRMDLIGVPEAQWGKIREEFLEDHQQENEGSNEPAEEDPLIAEAKKLVGADLIEIKD
B3: Geobacillus stearothermophilus replicative helicase DnaB (enzyme, G. stearothermophilus (strain NCA1503), UniProt Q9X4C9 1-454, looked up)
chain: MSELFSERIPPQSIEAEQAVLGAVFLDPAALVPASEILIPEDFYRAAHQKIFHAMLRVADRGEPVDLVTVTAELAASEQLEEIGGVSYLSELADAVPTAANVEYYARIVEEKSVLRRLIRTATSIAQDGYTREDEIDVLLDEADRKIMEVSQRKHSGAFKNIKDILVQTYDNIEMLHNRDGEITGIPTGFTELDRMTSGFQRSDLIIVAARPSVGKTAFALNIAQNVATKTNENVAIFSLEMSAQQLVMRMLCAEGNINAQNLRTGKLTPEDWGKLTMAMGSLSNAGIYIDDTPSIRVSDIRAKCRRLKQESGLGMIVIDYLQLIQGSGRSKENRQQEVSEISRSLKALARELEVPVIALSQLSRSVEQRQDKRPMMSDIRESGSIEQDADIVAFLYRDDYYNKDSENKNIIEIIIAKQRNGPVGTVQLAFIKEYNKFVNLERRFDEAQIPPGA
B4: Bacillus subtilis τ A550V mutant (natural protein, B. subtilis (strain 168), UniProt P09122 1-563, looked up)
chain: B2 chain with A550V

Substitutions are numbered along the chain they refer to. Names and notes keep the numbering of the source. Like-named read-outs stand apart in the source and are kept apart here.

Holding throughout (assay): SEC
In general terms: Size exclusion chromatography separates by hydrodynamic size, large species first.

Data set [1] concerns the molecule itself.
In data set [2] the target is B4.
Data set [3] concerns the target B1.
Data set [4] concerns the molecule itself. This is another data set of the same source.

For the molecule B1, the binding result in the data set “SEC [1]” is recorded as “binds”.
Still for that read-out and setting: to B2 belongs “binds”.
Regarding B3, the binding result (in data set [2]; in data set [3]; in “SEC [1]”) was “binds” throughout.
For the molecule B4, in “SEC [4]”, the binding result is “binds”.
